Consider 46 molecules from US20150004189A1 (published 2015).

Where a chain is given by its changes, count along the chain named.

T1: HLA-DP DPB1*0201 (human)
T1 chain 1: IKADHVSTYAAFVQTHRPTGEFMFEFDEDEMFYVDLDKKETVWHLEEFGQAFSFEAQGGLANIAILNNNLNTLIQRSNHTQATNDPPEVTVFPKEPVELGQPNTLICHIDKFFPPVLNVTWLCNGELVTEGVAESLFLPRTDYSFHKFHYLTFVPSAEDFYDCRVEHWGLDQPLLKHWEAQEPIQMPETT
T1 chain 2: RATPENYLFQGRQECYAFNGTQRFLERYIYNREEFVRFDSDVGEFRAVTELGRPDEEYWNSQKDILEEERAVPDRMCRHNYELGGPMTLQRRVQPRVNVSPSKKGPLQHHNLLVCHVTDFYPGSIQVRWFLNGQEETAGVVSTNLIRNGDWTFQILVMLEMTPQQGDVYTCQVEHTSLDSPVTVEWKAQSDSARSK

T2: HLA-DP DPB1*0401 (human)
T2 chain 1: T1 chain 1
T2 chain 2: T1 chain 2 with V36A, D55A, E56A, E69K

B1: Cup s 1 (91-105) peptide IIFSQNMNIKLKMPL (peptide)
peptide: IIFSQNMNIKLKMPL
B2: Cup a 1 (71-85) peptide IFSQNMNIKLQMPLY (peptide)
peptide: IFSQNMNIKLQMPLY
B3: Dac g 2 (16-30) peptide NLALSIKYNKEGDSM (peptide)
peptide: NLALSIKYNKEGDSM
B4: Que a 1 (11-25) peptide ASVIPPARLFKAFVL (peptide)
peptide: ASVIPPARLFKAFVL
B5: Lol p 5 1 peptide, position 71, LIEKINAGFKAAVAA (Peptide ID 3324.1175) (peptide)
peptide: LIEKINAGFKAAVAA
B6: Pha a 5 peptide, position 121, DAFIAALTEALRVIA (Peptide ID 3324.1432) (peptide)
peptide: DAFIAALTEALRVIA
B7: Lol p 3 peptide, position 76, NVFDEVIPTAFTVGK (Peptide ID 3324.1141) (peptide)
peptide: NVFDEVIPTAFTVGK
B8: Fel d 1 2 (26-40) peptide IFYDVFFAVANGNEL, Peptide ID 3324.1052 (peptide)
peptide: IFYDVFFAVANGNEL
B9: Cla h 5 (6-20) peptide, Peptide ID 3324.0576 (peptide)
peptide: AFLLLGLAGNSSPSA
B10: Cla h 8 (181-195) peptide GCIHMARSLANEWRD, Peptide ID 3324.0602 (peptide)
peptide: GCIHMARSLANEWRD
B11: Cla h 8 (236-250) peptide KELKGAYVYFASDAS, Peptide ID 3324.0598 (peptide)
peptide: KELKGAYVYFASDAS
B12: Cla h 8 (101-115) peptide QIDAFIANAGATADS, Peptide ID 3324.0601 (peptide)
peptide: QIDAFIANAGATADS
B13: Cla h 6 (161-175) peptide GGRLAFQEFMIVPSG, Peptide ID 3324.0588 (peptide)
peptide: GGRLAFQEFMIVPSG
B14: Cla h 8 (151-165) peptide GTGSLVITASMSGHI, Peptide ID 3324.0603 (peptide)
peptide: GTGSLVITASMSGHI
B15: Der p 4 (381-395) peptide 3324.0986 (peptide)
peptide: EHRWREIYNMVKFRM
B16: Der p 4 (386-400) peptide 3324.0978 (peptide)
peptide: EIYNMVKFRMIAGQE
B17: Aln g 1 (11-25) peptide 3324.0004 (peptide)
peptide: PSVIPAARLFKAFIL
B18: Der p 4 (251-265) peptide 3324.0976 (peptide)
peptide: IEFRFYKEITNVFRG
B19: Der p 4 (476-490) peptide 3324.0975 (peptide)
peptide: YVGHDEFDAFVAYHI
B20: Der p 4 (321-335) peptide 3324.0977 (peptide)
peptide: AFMLAWNYGVPRVMS
B21: Aln g 1 (111-125) peptide 3324.0007 (peptide)
peptide: GGSILKISNKFHTKG
B22: Bet v 1 (96-110) peptide 3324.0353 (peptide)
peptide: LEKISNEIKIVATPD
B23: Der p 4 (416-430) peptide 3324.0974 (peptide)
peptide: SRGNRAFIAINLQKN
B24: Bet v 6 (206-220) peptide 3324.0387 (peptide)
peptide: RTLNKIVYIKPAKNI
B25: Der p 4 (482-496) peptide 3324.0971 (peptide)
peptide: FDAFVAYHIGARIVS
B26: Der f 1 (136-150) peptide 3324.0666 (peptide)
peptide: FSGVAATESAYLAYR
B27: Bet v 1 (111-125) peptide 3324.0352 (peptide)
peptide: GGSILKISNKYHTKG
B28: Bet v 1 peptide 3324.0352 (position 111) (peptide)
peptide: GGSILKISNKYHTKG
B29: Bet v 6 peptide 3324.0387 (position 206) (peptide)
peptide: RTLNKIVYIKPAKNI
B30: Der p 4 peptide 3324.0971 (position 482) (peptide)
peptide: FDAFVAYHIGARIVS
B31: Der p 4 peptide 3324.0974 (position 416) (peptide)
peptide: SRGNRAFIAINLQKN
B32: Der p 4 peptide 3324.0976 (position 251) (peptide)
peptide: IEFRFYKEITNVFRG
B33: Der p 4 peptide 3324.0987 (position 96) (peptide)
peptide: IVLNHMTGAQSGKGT
B34: Der p 4 peptide 3324.0977 (position 321) (peptide)
peptide: AFMLAWNYGVPRVMS
B35: Der p 1 peptide 3324.0831 (position 176) (peptide)
peptide: RGIEYIQHNGVVQES
B36: Der p 4 peptide 3324.0980 (position 411) (peptide)
peptide: YQIAFSRGNRAFIAI
B37: Aln g 1 peptide 3324.0004 (position 11) (peptide)
peptide: PSVIPAARLFKAFIL
B38: Der p 1 peptide 3324.0840 (position 226) (peptide)
peptide: REALAQTHSAIAVII
B39: Der p 4 peptide 3324.0986 (position 381) (peptide)
peptide: EHRWREIYNMVKFRM
B40: Aln g 1 peptide 3324.0007 (position 111) (peptide)
peptide: GGSILKISNKFHTKG
B41: Der p 1 peptide 3324.0829 (position 136) (peptide)
peptide: SGVAATESAYLAYRN
B42: Der p 4 peptide 3324.0975 (position 476) (peptide)
peptide: YVGHDEFDAFVAYHI
B43: Der p 1 peptide 3324.0832 (position 131) (peptide)
peptide: SCWAFSGVAATESAY
B44: Lol p 3 peptide, position 76, NVFDEVIPTAFTVGK (Peptide ID 3324.1141) (peptide)
peptide: NVFDEVIPTAFTVGK
B45: Lol p 3 peptide, position 11, SDAKTLVLNIKYTRP (Peptide ID 3324.1142) (peptide)
peptide: SDAKTLVLNIKYTRP
B46: Poa p 5 peptide, position 51, QKLMEDINVGFKAAV (Peptide ID 3324.1580) (peptide)
peptide: QKLMEDINVGFKAAV

One test deals with HLA-DQ molecule DQB1*0602 (human). Briefly: inhibition of radiolabeled peptide binding to purified HLA-DQ.
Turning to B1, the IC50 – broadly, the concentration that inhibits the measured activity by half – was 1860 nM. Same read-out and setting: the result for B2 reads 262 nM; that for B3, 258 nM.

In the next test the target is HLA-DQ molecule DQB1*0503 (human). The description is as above.
On to B1, for which the IC50 came to 36000 nM. The molecule B2 came in with an IC50 of 4900 nM. Still for that read-out and setting: for B4 the value was 1950 nM; for B3, 8960 nM.

For the next test, the target named is HLA DQ molecule DQB1*0503 (human). Put plainly: inhibition of radiolabeled peptide binding to purified HLA class II.
Turning to B5, the IC50 turned out to be 147 nM. Still for that read-out and setting: the result for B6 reads 50000 nM; that for B7, 2900 nM.

Another test addresses HLA DQ molecule DQB1*0202 (human). The test is described as above.
B5 displayed an IC50 of 50000 nM. That is a double-digit micromolar value.

For B6, the IC50 was 2040 nM. This IC50 lies about 25-fold lower than the previous one. The same measure, in the same setting: the result for B7 reads 1700 nM.

Another test concerns the target HLA DQ molecule DQB1*0502 (human). The test is described as above.
B8 gave an IC50 of 6650 nM. Still for that read-out and setting: the result for B9 reads 718 nM; that for B10, 673 nM; that for B11, 4670 nM. Same read-out and setting: for B12 the value was 819 nM; for B13, 4950 nM.

For a further test, the target named is HLA DQ molecule DQB1*0503 (human). Described as above. The source holds these as a separate data set.
As for B8, the IC50 amounted to 8130 nM. The same measure, in the same setting: the result for B10 reads 649 nM.

The molecule B11 yielded an IC50 of 518 nM. Consider B12, for which the IC50 is 84 nM.

B13: the IC50 was 2440 nM. The molecule B14 displayed an IC50 of 13800 nM.

For another test, the target named is T1, HLA-DP DPB1*0201. Briefly: inhibition of radiolabeled peptide binding to purified HLA-DP.
Regarding B15, the IC50 came to 109 nM. That is a sub-micromolar value. Same read-out and setting: for B16 the value was 5.3 nM; for B17, 63 nM; for B18, 35 nM. The molecule B19 had an IC50 of 177 nM. The same measure, in the same setting: for B20 the value was 185 nM; for B21, 843 nM; for B22, 7570 nM. B23 came in with an IC50 of 7.2 nM. This IC50 lies about 1100-fold lower than the previous one.

The target of a further test is T2, HLA-DP DPB1*0401. Described as above.
On to B15, for which the IC50 was found to be 549 nM. B24 returned an IC50 of 41 nM.

Consider B25, for which the IC50 was determined as 71 nM. The same measure, in the same setting: the result for B16 reads 122 nM; that for B26, 1440 nM. For the molecule B17, the IC50 came to 7280 nM. On the same count and under the same terms, for B19 the value was 273 nM; for B20, 5160 nM; for B21, 18500 nM. B22 gave an IC50 of 6820 nM. As for B27, the IC50 worked out at 10500 nM.

Another test has as its target HLA-DQ molecule DQB1*0602 (human). Put plainly: inhibition of radiolabeled peptide binding to purified HLA.
The molecule B28 registered an IC50 of 6060 nM. As to B29, the IC50 stood at 58 nM.

The molecule B30 displayed an IC50 of 54 nM. Molecule B31 showed an IC50 of 98 nM. Take B32: the IC50 is 318 nM.

As to B33, the IC50 came to 65 nM. The same measure, in the same setting: for B34 the value was 762 nM. Still for that read-out and setting: for B35 the value was 859 nM.

A further test addresses HLA-DQ molecule DQB1*0503 (human). The test is described as above.
The molecule B36 had an IC50 of 1410 nM. Same read-out and setting: the result for B29 reads 3460 nM; that for B37, 1450 nM.

Consider B38, for which the IC50 was found to be 32100 nM. B30: the IC50 is 1080 nM. Turning to B31, the IC50 was 84 nM.

B32 returned an IC50 of 4370 nM. Compared with the last molecule, the IC50 is about 52-fold higher. The same measure, in the same setting: for B34 the value was 339 nM. On the same count and under the same terms, the result for B39 reads 4240 nM.

For another test, the target named is HLA-DQ molecule DQB1*0202 (human). Described as above.
With B36, the IC50 was 8720 nM. The molecule B40 yielded a half-maximal inhibitory concentration (IC50) of 50000 nM. In turn, B29 gave an IC50 of 12500 nM.

B37: the IC50 is 11200 nM. This IC50 and that of the molecule before are within 1.5-fold of each other. Take B38: the IC50 came to 629 nM. The molecule B30 came in with an IC50 of 4750 nM. Against the preceding molecule, the IC50 is about 7.6-fold higher.

As to B41, the IC50 was found to be 871 nM.

The molecule B31 registered an IC50 of 7390 nM. The same measure, in the same setting: for B32 the value was 6200 nM. Regarding B42, the IC50 amounted to 8140 nM.

The molecule B34 displayed an IC50 of 8360 nM.

In the next test the target is HLA-DQ molecule DQB1*0502 (human). The test is described as above.
In the case of B31, the IC50 turned out to be 546 nM.

Molecule B32 came in with an IC50 of 5520 nM. Consider B42, for which the IC50 was 5040 nM. In turn, B34 registered an IC50 of 992 nM. With B39, the IC50 amounted to 8940 nM. Still for that read-out and setting: the result for B43 reads 4400 nM.

Another test deals with HLA-DP molecule DPB1*2001 (human). Briefly: inhibition of radiolabeled peptide binding to purified HLA-DP.
On to B44, for which the IC50 was 13200 nM. On to B45, for which the IC50 is 24000 nM.

Turning to B46, the IC50 came to 2180 nM.
